US20240390433A1, “GENETICALLY MODIFIED BACILLUS SUBTILIS STRAIN AND USE AS A LIVE DELIVERY AND […]” (BiomEdit, LLC, priority 2021, published 2024)
Several values for one entry are separate records, joined by “and”; a condition that tells them apart may be missing. Equal values may be shown once. Entries after “also recorded” stand apart in the source; their conditions may differ.

How the values were obtained:
[1] = target: recombinant NetB (wild type NetB), Clostridium perfringens (Clostridium perfringens); test: cell-based or functional assay
[2] = tested on: Clostridium perfringens alpha toxin; type: biochemical

Molecule	lowest VHH concentration neutralizing NetB haemolysis [1]	neutralization of alpha toxin lecithinase activity (in words) [2]	residual lecithinase activity [2]	lecithinase activity neutralized [2]
VHH antibody ENB-1D11 (VHH) VHH: EVQLVESGGGLVQTGGSLRLSCTASGTIDMTYGLIWYRQAPGKERELVASIRRDGRTNYADSVKGRFTISIDNAKNSIHLQMNSLKPDDTARYYCNSPYHALWGQGTQVTVSS	1.25 µM and 0.625 µM	–	–	–
VHH antibody ENB-1A4 (VHH) VHH: EVQLVESGGGLVQAGGSLRLSCAASGSIFSTNVMGWYRQAPGKQREFVAGITIGGTARYPDSVKGRFTISRDNTQNTVYLQMNNLKPEDTAVYYCNAVLPSDQRRWSWGQGTQVTVSS	1.25 µM and 0.625 µM	–	–	–
EAT-1F2 (protein, listed as Camelus sp., REGION 1..154: note = Description of sequence: EAT-1F2 antibody) VHH: EVQLVESGGGLVQAGGSLRLSCAGSGRTGSLYSMGWFRQAPGKEREFVAAITWRPSSTYYADSVKGRFTISRDDAKNTVYLQMNSLKPEDTAVYFCAARPRGGLSPTPQAYDYWGQGTQVTVSSAAASGSLEQKLISEEDLNGAAHHHHHHGAA	–	high neutralizing capacity; also recorded: unable to completely neutralize	about 25%	–
EAT-1G4 (protein, listed as Camelus sp., REGION 1..141: note = Description of sequence: EAT-1G4 antibody) VHH: EVQLVESGGGLVQPGGSLRLSCAASGSIATINDMGWFRQAPGKQRDWVATIVSDGSTAYADSVKGRFTISRDNAKNTVYLQMNSLKPEDTAVYYCSARRHYGQGTQVTVSSAAASGSLEQKLISEEDLNGAAHHHHHHGAA	–	less capable of neutralizing	–	100%
